Here are results for two substances from patent US8163873.

The target in test [1] is purified abnormally phosphorylated tau, mixed with affinity-purified normal tau (human) (UniProt P10636). Kind of test: competition ELISA on captured tau mixture; unlabeled AT8 at 111 ng/ml, competitor biotinylated BT2 (its signal is read).
The target in test [2] is PHF-tau (abnormally phosphorylated human tau, 64 and 68 kDa forms, from Alzheimer brain) (human) (UniProt P10636). Kind of test: sandwich ELISA, PHF-tau diluted 1/2000, fixed concentration of AT8.
For test [3], the target named is purified abnormally phosphorylated tau, mixed with affinity-purified normal tau (human) (UniProt P10636). Kind of test: competition ELISA on captured tau mixture; unlabeled AT8 at 111 ng/ml, competitor biotinylated AT8 (its signal is read). (In general: An ELISA detects its analyte on a solid surface through an enzyme-linked reagent.)
Test [4] deals with PHF-tau (abnormally phosphorylated human tau, 64 and 68 kDa forms, from Alzheimer brain) (human) (UniProt P10636). Nature of the test: sandwich ELISA, PHF-tau diluted 1/20, fixed concentration of AT8.
Test [5] addresses purified abnormally phosphorylated tau, mixed with affinity-purified normal tau (human) (UniProt P10636). Kind of test: competition ELISA on captured tau mixture; signal of biotinylated AT8 with casein control, no competing antibody (row 111 ng/ml).
Test [6] shares this target. Kind of test: competition ELISA on captured tau mixture; signal of biotinylated AT8 with casein control, no competing antibody (row 37 ng/ml).
Test [7] deals with affinity-purified normal human tau (human) (UniProt P10636). Kind of test: sandwich ELISA, normal tau at 10 ng/ml, fixed concentration of AT8.
The target of test [8] is purified abnormally phosphorylated tau, mixed with affinity-purified normal tau (human) (UniProt P10636). Kind of test: competition ELISA on captured tau mixture; signal of biotinylated AT8 with casein control, no competing antibody (row 333 ng/ml).
Test [9] has as its target PHF-tau (abnormally phosphorylated human tau, 64 and 68 kDa forms, from Alzheimer brain) (human) (UniProt P10636). Kind of test: sandwich ELISA, PHF-tau diluted 1/200, fixed concentration of AT8.
Test [10] concerns the target purified abnormally phosphorylated tau, mixed with affinity-purified normal tau (human) (UniProt P10636). Nature of the test: competition ELISA on captured tau mixture; signal of biotinylated AT8 with casein control, no competing antibody (row 1 µg/ml).
The target is the same in test [11]. Kind of test: competition ELISA on captured tau mixture; unlabeled AT8 at 3 µg/ml, competitor biotinylated AT8 (its signal is read).
The target is the same in test [12]. Kind of test: competition ELISA on captured tau mixture; unlabeled AT8 at 3 µg/ml, competitor biotinylated BT2 (its signal is read).
Test [13] has the same target. Kind of test: competition ELISA on captured tau mixture; signal of biotinylated AT8 with casein control, no competing antibody (row 3 µg/ml).
For test [14] the target is unchanged. Nature of the test: competition ELISA on captured tau mixture; unlabeled AT8 at 333 ng/ml, competitor biotinylated BT2 (its signal is read).
Test [15] shares this target. Nature of the test: competition ELISA on captured tau mixture; unlabeled AT8 at 37 ng/ml, competitor biotinylated AT8 (its signal is read).
Test [16] shares this target. Nature of the test: competition ELISA on captured tau mixture; unlabeled AT8 at 9 µg/ml, competitor biotinylated AT8 (its signal is read).
The target is the same in test [17]. Kind of test: competition ELISA on captured tau mixture; unlabeled AT8 at 333 ng/ml, competitor biotinylated AT8 (its signal is read).
The target is the same in test [18]. Nature of the test: competition ELISA on captured tau mixture; signal of biotinylated AT8 with casein control, no competing antibody (row 9 µg/ml).
Test [19] has the same target. Nature of the test: competition ELISA on captured tau mixture; unlabeled AT8 at 1 µg/ml, competitor biotinylated BT2 (its signal is read).
The target is the same in test [20]. Nature of the test: competition ELISA on captured tau mixture; unlabeled AT8 at 1 µg/ml, competitor biotinylated AT8 (its signal is read).
The target is the same in test [21]. Nature of the test: competition ELISA on captured tau mixture; unlabeled AT8 at 37 ng/ml, competitor biotinylated BT2 (its signal is read).
The target in test [22] is affinity-purified normal human tau (human) (UniProt P10636). Nature of the test: sandwich ELISA, normal tau at 100 ng/ml, fixed concentration of AT8.
The target in test [23] is purified abnormally phosphorylated tau, mixed with affinity-purified normal tau (human) (UniProt P10636). Kind of test: competition ELISA on captured tau mixture; unlabeled AT8 at 9 µg/ml, competitor biotinylated BT2 (its signal is read).
Test [24] addresses affinity-purified normal human tau (human) (UniProt P10636). Nature of the test: sandwich ELISA, normal tau at 1 µg/ml, fixed concentration of AT8.
Test [25] has as its target purified abnormally phosphorylated tau, mixed with affinity-purified normal tau (human) (UniProt P10636). Nature of the test: competition ELISA on captured tau mixture; unlabeled BT2 at 333 ng/ml, competitor biotinylated BT2 (its signal is read).
Test [26] has the same target. Kind of test: competition ELISA on captured tau mixture; unlabeled BT2 at 333 ng/ml, competitor biotinylated AT8 (its signal is read).
The target is the same in test [27]. Nature of the test: competition ELISA on captured tau mixture; unlabeled BT2 at 111 ng/ml, competitor biotinylated BT2 (its signal is read).
Test [28] shares this target. Kind of test: competition ELISA on captured tau mixture; signal of biotinylated BT2 with casein control, no competing antibody (row 9 µg/ml).
Test [29] shares this target. Nature of the test: competition ELISA on captured tau mixture; unlabeled BT2 at 3 µg/ml, competitor biotinylated BT2 (its signal is read).
The target is the same in test [30]. Kind of test: competition ELISA on captured tau mixture; signal of biotinylated BT2 with casein control, no competing antibody (row 111 ng/ml).
Test [31] shares this target. Kind of test: competition ELISA on captured tau mixture; unlabeled BT2 at 111 ng/ml, competitor biotinylated AT8 (its signal is read).
The target is the same in test [32]. Nature of the test: competition ELISA on captured tau mixture; unlabeled BT2 at 3 µg/ml, competitor biotinylated AT8 (its signal is read).
Test [33] shares this target. Nature of the test: competition ELISA on captured tau mixture; unlabeled BT2 at 37 ng/ml, competitor biotinylated AT8 (its signal is read).
Test [34] has the same target. Kind of test: competition ELISA on captured tau mixture; unlabeled BT2 at 9 µg/ml, competitor biotinylated BT2 (its signal is read).
Test [35] shares this target. Nature of the test: competition ELISA on captured tau mixture; signal of biotinylated BT2 with casein control, no competing antibody (row 1 µg/ml).
Test [36] has the same target. Kind of test: competition ELISA on captured tau mixture; signal of biotinylated BT2 with casein control, no competing antibody (row 3 µg/ml).
For test [37] the target is unchanged. Nature of the test: competition ELISA on captured tau mixture; unlabeled BT2 at 1 µg/ml, competitor biotinylated AT8 (its signal is read).
Test [38] shares this target. Kind of test: competition ELISA on captured tau mixture; signal of biotinylated BT2 with casein control, no competing antibody (row 333 ng/ml).
For test [39] the target is unchanged. Nature of the test: competition ELISA on captured tau mixture; unlabeled BT2 at 37 ng/ml, competitor biotinylated BT2 (its signal is read).
Test [40] shares this target. Kind of test: competition ELISA on captured tau mixture; unlabeled BT2 at 1 µg/ml, competitor biotinylated BT2 (its signal is read).
Test [41] has the same target. Nature of the test: competition ELISA on captured tau mixture; unlabeled BT2 at 9 µg/ml, competitor biotinylated AT8 (its signal is read).
Test [42] has the same target. Nature of the test: competition ELISA on captured tau mixture; signal of biotinylated BT2 with casein control, no competing antibody (row 37 ng/ml).

For the substance monoclonal antibody AT8, the absorbance at 450 nm in test [1] was 0.381 A450; in [3] it was 0.155 A450; in [5], 0.576 A450; in [6], 0.568 A450; in test [8], 0.564 A450; in test [10] it was 0.548 A450. In addition, the absorbance at 450 nm was 0.054 A450 in test [11]; 0.375 A450 in [12]; 0.573 A450 in [13]; 0.369 A450 in test [14]; 0.282 A450 in test [15]; 0.056 A450 in [16]. Also, the absorbance at 450 nm in test [17] is 0.093 A450; in test [18] it was 0.578 A450; in test [19], 0.368 A450; in [20], 0.059 A450; in test [21], 0.36 A450; in test [23], 0.369 A450. Also, the A150 nm is 0.565 A150 nm in [2]; 1.46 A150 nm in test [4]; 0.001 A150 nm in test [7]; 1.18 A150 nm in test [9]; 0.005 A150 nm in test [22]; 0.021 A150 nm in [24].
Consider monoclonal antibody BT2, for which the absorbance at 450 nm in test [25] was 0.179 A450; in [26], 0.556 A450; in test [27] it was 0.245 A450; in test [28], 0.369 A450; in test [29], 0.088 A450; in test [30] it was 0.385 A450. Also, the absorbance at 450 nm in test [31] worked out at 0.573 A450; in test [32], 0.557 A450; in test [33], 0.549 A450; in test [34], 0.071 A450; in [35], 0.375 A450; in test [36], 0.39 A450. Further, the absorbance at 450 nm was determined as 0.55 A450 in test [37]; 0.381 A450 in test [38]; 0.318 A450 in test [39]; 0.122 A450 in test [40]; 0.548 A450 in test [41]; 0.395 A450 in test [42].
